{"source": "patent US20250136692A1"}
{"target": "hPD-1-HIS (human) (UniProt Q15116)", "sequence (Q15116 25-167 limits assumed)": "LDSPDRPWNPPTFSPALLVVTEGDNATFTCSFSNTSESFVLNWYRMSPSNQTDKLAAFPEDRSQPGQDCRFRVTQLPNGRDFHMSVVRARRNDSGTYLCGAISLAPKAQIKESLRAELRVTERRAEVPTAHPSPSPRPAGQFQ", "assay": "ELISA, plate-coated PD-1 protein, protocol of Example 1", "units": {"hPD-1-HIS Binding (OD 450)": "OD 450"}}
{"binder": "5C2-1 (antibody, human IgG1, kappa, V domains shown) VH: QVQLVQSGAEVKKPGASVKVSCKASGYTFNSYWMHWVRQAPGQGLEWMGRIHPRGIHTNYNQKFKGRVTLTVDTSTSTAYMELSSLRSEDTAVYYCAPSSSYAWAFAHWGQGTLVTVSS VL: DIQMTQSPSSLSASVGDRVTITCRASQDVSTALAWYQQKPGKAPKLLIYWASTRHSGVPDRFSGSGSGTDFTLTISSLQPEDFATYYCQQHYRSPGTFGGGTKVEIKR", "hPD-1-HIS Binding (OD 450)": 0.791}
{"binder": "5C2-2 (antibody, human IgG1, kappa, V domains shown) VH: QVQLVQSGAEVKKPGASVKVSCKASGQTFTSYRMHWVRQAPGQGLEWMGRILPIRSDTNYNQKFKGRVTLTVDTSTSTAYMELSSLRSEDTAVYYCARDAGYGSLFAAWGQGTLVTVSS VL: DIQMTQSPSSLSASVGDRVTITCRASQDVSTALAWYQQKPGKAPKLLIYWASTRHSGVPDRFSGSGSGTDFTLTISSLQPEDFATYYCQQHDSSPGTFGGGTKVEIKR", "hPD-1-HIS Binding (OD 450)": 0.395}
{"binder": "5C2-3 (antibody, human IgG1, kappa, V domains shown) VH: QVQLVQSGAEVKKPGASVKVSCKASGYTFTSYWMHWVRQAPGQGLEWMGRIHPSDSDTNYNQKFKGRVTLTVDTSTSTAYMELSSLRSEDTAVYYCAPKGNYVVRFAYWGQGTLVTVSS VL: DIVMTQSPSSLSASVGDRVTITCRASQGIRNDLGWYQQKPGKAPKLLIYAASSLQSGVPSRFSGSGSDTDFTLTISSLQPEDFATYYCLQDYNYPWTFGQGTKVDIKR", "hPD-1-HIS Binding (OD 450)": 0.345}
{"binder": "5C2-4 (antibody, human IgG1, kappa, V domains shown) VH: QVQLVQSGAEVKKPGASVKVSCKASGYTFTRYWMHWVRQAPGQGLEWMGRIHPTDSVTNYNQKFKGRVTLTVDTSTSTAYMELSSLRSEDTAVYYCAPDVNYARAFAHWGQGTLVTVSS VL: DIQMTQSPSSLSASVGDRVTITCRASQDVSTALAWYQQKPGKAPKLLIYWASTRHSGVPDRFSGSGSGTDFTLTISSLQPEDFATYYCQQHYGSPWTFGGGTKVEIKR", "hPD-1-HIS Binding (OD 450)": 0.312}
{"binder": "5C2-5 (antibody, human IgG1, kappa, V domains shown) VH: QVQLVQSGAEVKKPGASVKVSCKASGYTFGIYWMHWVRQAPGQGLEWMGRILPSNGYTNYNQKFKGRVTLTVDTSTSTAYMELSSLRSEDTAVYYCAPYGIYTRDFSHWGQGTLVTVSS VL: DIQMTQSPSSLSASVGDRVTITCRASQDVSTALAWYQQKPGKAPKLLIYWASTRHSGVPDRFSGSGSGTDFTLTISSLQPEDFATYYCQQRDTTPRTFGGGTKVEIKR", "hPD-1-HIS Binding (OD 450)": 0.286}
{"binder": "5C2-6 (antibody, human IgG1, kappa, V domains shown) VH: QVQLVQSGAEVKKPGASVKVSCKASGYTFTSYWMHWVRQAPGQGLEWMGRIHPSDSDTNYNQKFKGRVTLTVDTSTSTAYMELSSLRSEDTAVYYCAPYVDLESGFAYWGQGTLVTVSS VL: DIAMTQTPSSLSASIGDRVTIACRASQGISSALAWYQQKPGRTPKLLIFDASTLQSGVPSRFSGSGSGTDFTLTISSLQPEDFATYYCQQFNTYSSVTFGQGTRLEIKR", "hPD-1-HIS Binding (OD 450)": 0.267}
{"binder": "5C2-7 (antibody, human IgG1, kappa, V domains shown) VH: QVQLVQSGAEVKKPGASVKVSCKASGYTFTSYWMHWVRQAPGMGLEWMGRIHPIYRDTNYNQKFKGRVTLTVDTSTSTAYMELSSLRSEDTAVYYCAPYVNYGDGFAYWGQGTLVTVSS VL: DIQMTQSPSTLSASVGDRVTITCRASQDVSTALAWYQQKPGKAPKLLIYWASTRHIGVPDRFSGSGSGTDFTLTISSLQPEDFATYYCHQDYITPRTFGGGTKVEIKR", "hPD-1-HIS Binding (OD 450)": 0.264}
{"binder": "5C2-8 (antibody, human IgG1, kappa, V domains shown) VH: QVQLVQSGAEVKKPGASVKVSCKASGYTFNSYLMHWVRQAPGMGLEWMGRIRPNYSDTNYNQKFKGRVTLTVDTSTSTAYMELSSLRSEDTAVYYCAPYGNNASGFSYWGQGTLVTVSS VL: DIQMTQSPSSLSASVGDRVTITCRASQDVSTALAWYQQKPGKAPKLLIYWASTRHSGVPDRFSGSGSGTDFTLTISSLQPEDFATYYCQQHYRSPWTFGGGTKVEIKR", "hPD-1-HIS Binding (OD 450)": 0.262}
{"binder": "5C2-9 (antibody, human IgG1, kappa, V domains shown) VH: QVQLVQSGAEVKKPGASVKVSCKASGQTFTNYLMHWVRQAPGQGLEWMGRIPLSDRDTNYNQKFKGRVTLTVDTSTSTAYMELSSLRSEDTAVYYCAPYGRSASGFSSWGQGTLVTVSS VL: DIQMTQSPSSLSASVGDRVTITCRASQDVSTALAWYQQKPGKAPKLLIYWASTRHSGVPDRFSGSGSGTDFTLTISSLQPEDFATYYCQQGSSTPLTFGGGTKVEIKR", "hPD-1-HIS Binding (OD 450)": 0.255}
{"target": "hPD-1-HIS (human) (UniProt Q15116)", "assay": "ELISA, plate-coated PD-1 protein, anti-human IgG detection", "units": {"hPD-1-HIS Binding (OD 450)": "OD 450"}}
{"binder": "4G9-1 (antibody, human IgG1, kappa, V domains shown) VH: QVQLVQSGAEVKKPGASVKVSCKASGYTFTTYGINWVRQATGQGLEWMGWINTYSGVPGYAQKFQGRVTMTLNTSISTAYMELSSLRSEDTAVYYCARGGRGIAYWGQGTLVTVSS VL: DIQLTQSPSSLSASVGDRVTITCRASQGISNSLAWFQQKPGKVPKRLIYAASNLQSGVPSRFSGSGSGTEFTLTISSLQPEDFATYYCQQSYSTPYTFGQGTKLEIKR", "hPD-1-HIS Binding (OD 450)": 0.874}
{"binder": "4G9-10 (antibody, human IgG1, kappa, V domains shown) VH: QVQLVQSGAEVKKPGASVKVSCKASGYTFTTYGINWVRQATGQGLEWMGWINTYSGVPGYAQKFQGRVTMTLNTSISTAYMELSSLRSEDTAVYYCARGSKGDAYWGQGTLVTVSS VL: DIVMTQSPSSLSASVGDRVTITCRASQSISTWLAWFQQKPGKAPKLLIYKASSLKSGVPSRFSGSGSGTEFTLTISSLQPDDFATYYCQQSYSTPWTFGQGTKLEIKR", "hPD-1-HIS Binding (OD 450)": 0.287}
{"binder": "4G9-3 (antibody, human IgG1, kappa, V domains shown) VH: QVQLVQSGAEVKKPGASVKVSCKASGYTFTTYGINWVRQATGQGLEWMGWINTYSGVPGYAQKFQGRVTMTLNTSISTAYMELSSLRSEDTAVYYCARGGRESAYWGQGTLVTVSS VL: EIVMTQSPATLSVSPGERATLSCRASQSIGTSLHWYQQKPGGAPRLLIKYASESITGIPARFSGSGSGTEFTLTISSLQSEDFAVYYCQQSNSWPYTFGQGTKLEIKR", "hPD-1-HIS Binding (OD 450)": 0.451}
{"binder": "4G9-5 (antibody, human IgG1, kappa, V domains shown) VH: QVQLVQSGAEVKKPGASVKVSCKASGYTFTTYGINWVRQATGQGLEWMGWINTYSGVPGYAQKFQGRVTMTLNTSISTAYMELSSLRSEDTAVYYCARGVRVFYHWGQGTLVTVSS VL: EIVMTQSPATLSVSPGERATLSCRASQSIGTSLHWYQQKPGGAPRLLIKYASESITGIPARFSGSGSGTEFTLTISSLQSEDFAVYYCQQSNSWPYTFGQGTKLEIKR", "hPD-1-HIS Binding (OD 450)": 0.383}
{"binder": "4G9-8 (antibody, human IgG1, kappa, V domains shown) VH: QVQLVQSGAEVKKPGASVKVSCKASGYTFTTYGINWVRQATGQGLEWMGWINTYSGVPGYAQKFQGRVTMTLNTSISTAYMELSSLRSEDTAVYYCARVERGDAYWGQGTLVTVSS VL: EIVLTQSPSSLSASVGDRVTITCRASQDIRRDFGWYQQKPGLAPELLIYDASRLRSGVPSRFSGSGSGTLFTFTITNLQPEDFATYYCLQDYDFPRTFGQGTKVDIKR", "hPD-1-HIS Binding (OD 450)": 0.346}
{"binder": "4G9-9 (antibody, human IgG1, kappa, V domains shown) VH: QVQLVQSGAEVKKPGASVKVSCKASGYTFTTYGINWVRQATGQGLKWMGWINTYSGVPGYAQKFQGRVTMTLNTSISTAYMELSSLRSEDTAVYYCARGVHGVSYWGQGTLVTVSS VL: EIVMTQSPATLSVSPGERATLSCRASQSIGTSLHWYQQKPGGAPRLLIKYASESITGIPARFSGSGSGTEFTLTISSLQSEDFAVYYCQQSNSWPYTFGQGTKLEIKR", "hPD-1-HIS Binding (OD 450)": 0.31}
